Measurements reported in paper PMC5131891, “Structural Insights into Streptococcal Competence Regulation by the Cell-to-Cell Communication System ComRS” (PLoS Pathogens, 2016).
Where two headings read alike, the source gives them in different places. Peptide text beside a SMILES is read from it.

Legend:
ComR WT [1] = target: ComR WT (Streptococcus thermophilus, UniProt A0A1L1QK15); assay: biochemical; type: binding, Streptococcus thermophilus LMD-9; details: for Kd: Table 2 (WT and variant XIPs), ITC, 20°C, 20 mM Tris-HCl pH 8.0, 150 mM NaCl, 1 mM EDTA, 50 μM protein in cell, 500 μM peptide in syringe, one-binding-site model, apparent KD, read-out: KD
Experimental: Purification of ComR-StreptagII proteins (StreptagII at C-terminus) was performed as described previously with some modifications. E. coli strain BL21 Gold cultures were grown in 2YT medium at 15°C until an OD600 of ~ 0.5, cooled down on ice for 10 minutes, and induced by addition of 0.2% of L-arabinose (wt vol^-1) before continuous shaking at 28°C for 4 h. Cells were then harvested by centrifugation (5,000 × g during 15 min at 8°C). The pellets were resuspended in cold buffer W (100 mM Tris-HCl pH 8.0, 150 mM NaCl, 1 mM EDTA) supplemented with 0.5 mg ml^−1 of lysozyme, incubated for 30 min at 4°C, and sonicated at 4°C. […] For structural and biophysical analyses, the purification protocol was completed by a size exclusion chromatography step using a HiLoad 16/600 Superdex 75 prep grade column (GE Healthcare) equilibrated in buffer W plus 10% (vol vol^-1) glycerol. Purified proteins were aliquoted, flash frozen and conserved at -20°C. Their purity was visualized by SDS-PAGE and their concentrations were measured using a Nanodrop apparatus (protein A280 method) (ThermoFisher Scientific).
Isothermal titration calorimetry (ITC) experiments were performed at 20°C in 20 mM Tris-HCl pH 8.0, 150 mM NaCl, 1 mM EDTA with an ITC200 calorimeter (Microcal). The protein concentration in the microcalorimeter cell and the peptide concentration in the syringe were set at 50 μM and 500 μM, respectively. A first injection of 0.4 μl, which was not taken into account for the fitting, was followed by 20 injections of 2 μl at intervals of 180 s. The peptide concentration used in the calculations is based on the weight of the lyophilized peptide and is therefore inaccurate because there may be a significant quantity of bound water, and salts or counter ions. However, the calculated number of binding sites, n, is always close to 1, in agreement with the 1:1 ratio observed in the crystal structure of the ternary complex. […] The data were analyzed using the MicroCal Origin software provided by the manufacturer. […] It was therefore not possible to distinguish the two events and the fitting was performed with the one-binding-site model. The calculated KD are therefore apparent values.

[2] = test system: ComR from S. thermophilus; design: method as in 2 sources, ref [30] = [30]; PMID 23323845; doi:10.1111/mmi.12157; 30 Fontaine L , Goffin P , Dubout H , Delplace B , Baulard A , Lecat-Guillet N , et al Mechanism of competence activation by the ComRS signalling system in streptococci . Mol Microbiol . 2013; 87 ( 6 ||| ref [29] = [29]; PMID 20023010; doi:10.1128/JB.01251-09; 29 Fontaine L , Boutry C , de Frahan MH , Delplace B , Fremaux C , Horvath P , et al A novel pheromone quorum-sensing system controls the development of natural competence in Streptococcus thermophilu; details: cited from earlier work; for in vivo activation efficiency / activation of ComR: previous analysis, ComR from S. thermophilus, ref [30]; for activity of heptapeptide ComS18-24: previous study, lacking the N-terminal Leucine, ref [29]
[3] = target: ComR F171A/Y174A (ComR-StreptagII double mutant) (Streptococcus thermophilus LMD-9); assay: ITC; peptide 500 μM in the syringe, ComR 50 μM in the cell; 20°C; 20 mM Tris-HCl pH 8.0, 150 mM NaCl, 1 mM EDTA; one-binding-site model; apparent KD (peptide binding and dimerization not told apart)
[4] = target: ComR K100A (ComR-StreptagII mutant) (Streptococcus thermophilus LMD-9); assay: as above
[5] = target: ComR K87A/K246A (ComR-StreptagII double mutant) (Streptococcus thermophilus LMD-9); assay: as above
[6] = target: ComR R92A (ComR-StreptagII mutant) (Streptococcus thermophilus LMD-9); assay: as above
[7] = target: ComR T90A (ComR-StreptagII mutant) (Streptococcus thermophilus LMD-9); assay: as above
[8] = target: ComR Y91A (ComR-StreptagII mutant) (Streptococcus thermophilus LMD-9); assay: as above
[9] = target: ComR from Streptococcus thermophilus LMD-9 (ComR-StreptagII, wild type) (Streptococcus thermophilus LMD-9); assay: as above
[10] = target: ComR from Streptococcus thermophilus LMD-9 (ComR-StreptagII, wild type) (Streptococcus thermophilus LMD-9); assay: as above; remark: listed apart in the source
ComR WT [11] = target: T1, ComR WT (Streptococcus thermophilus LMD-9, UniProt PDB:5JUB_1 1-310); assay: X-ray crystallography; XIP (LPYFAGCL); 0.1 M MgCl2 in crystallization; EMSA: 20 mM Tris-HCl pH 8.0, 150 mM NaCl, 1 mM EDTA, 10% glycerol, 1 mg/ml BSA, 37 C 10 min, 40 ng DNA in 20 ul; crystal: 30% PEG 550 MME, 0.1 M MgCl2, 0.05 M Tris-HCl pH 8.5, 18 C; details: protein: recombinant; tags: C-terminal StreptagII; chain copies: 2; blunt
T1 sequence: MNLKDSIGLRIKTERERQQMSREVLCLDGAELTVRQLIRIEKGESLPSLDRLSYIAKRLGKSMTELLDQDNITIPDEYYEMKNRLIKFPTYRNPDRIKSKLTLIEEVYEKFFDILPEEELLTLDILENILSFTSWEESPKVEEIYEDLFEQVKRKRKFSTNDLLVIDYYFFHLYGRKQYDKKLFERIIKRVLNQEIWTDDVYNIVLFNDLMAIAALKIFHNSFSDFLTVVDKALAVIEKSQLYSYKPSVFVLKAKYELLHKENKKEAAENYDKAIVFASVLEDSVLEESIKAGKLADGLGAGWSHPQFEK

CC(C)C[C@H](NC(=O)[C@H](CS)NC(=O)CNC(=O)[C@H](C)NC(=O)[C@H](Cc1ccccc1)NC(=O)[C@H](C)NC(=O)[C@@H]1CCCN1C(=O)[C@@H](N)CC(C)C)C(=O)O [Y19A] (H-LPAFAGCL-OH)
affinity in words (ComR WT [1]): only little impact on the affinity of the protein | Kd (ComR WT [1]): 52 ± 13 nM

GAWYYVPL [casein-derived octapeptide GAWYYVPL]
in vivo activation efficiency / activation of ComR [2]: also activated

LAYFYPEL [casein-derivative peptide LAYFYPEL]
in vivo activation efficiency / activation of ComR [2]: inactive

MGLDWWSL [type II peptide MGLDWWSL from S. mutans]
in vivo activation efficiency / activation of ComR [2]: more efficiently activated by the type II peptide MGLDWWSL from S. mutans than by the type I peptide VPFFMIYY

VPFFMIYY [type I peptide VPFFMIYY from S. vestibularis]
in vivo activation efficiency / activation of ComR [2]: more efficiently activated by the type II peptide MGLDWWSL from S. mutans than by the type I peptide VPFFMIYY

ComS18-24: heptapeptide ComS18-24 lacking the N-terminal Leucine, minimal active form of the signaling peptide (PYFAGCL)
activity of heptapeptide ComS18-24 [2]: also fully active | activity of heptapeptide ComS18-24 ([2]; listed as heptapeptide 18–24): minimal active form of the signaling peptide

CC(C)C[C@H](NC(=O)[C@H](CS)NC(=O)CNC(=O)[C@H](C)NC(=O)[C@H](C)NC(=O)[C@H](Cc1ccc(O)cc1)NC(=O)[C@@H]1CCCN1C(=O)[C@@H](N)CC(C)C)C(=O)O [F20A] (H-LPYAAGCL-OH)
affinity in words (ComR WT [1]): the affinity of the peptide decreases drastically | Kd (ComR WT [1]): 2130 ± 226 nM

CC(C)C[C@H](N)C(=O)N1CCC[C@H]1C(=O)N[C@@H](Cc1ccc(O)cc1)C(=O)N[C@@H](Cc1ccccc1)C(=O)N[C@@H](C)C(=O)NCC(=O)N[C@@H](CS)C(=O)N[C@@H](C)C(=O)O [L24A] (H-LPYFAGCA-OH)
affinity in words (ComR WT [1]): the affinity of the peptide decreases drastically | Kd (ComR WT [1]): 1550 ± 332 nM

LPYFAGCL [XIP octapeptide (ComS 17-24, LPYFAGCL) from Streptococcus thermophilus LMD-9]
Kd [3]: 87 nM | stoichiometry N [3]: 1.1 | Kd [4]: 1180 nM | stoichiometry N [4]: 0.8 | Kd [5]: 9 nM | stoichiometry N [5]: 0.8 | Kd [6]: 277 nM | stoichiometry N [6]: 1.2 | Kd [7]: 244 nM | stoichiometry N [7]: 0.7 | Kd [8]: 141 nM | stoichiometry N [8]: 0.9 | Kd [9]: 10 nM | stoichiometry N [9]: 0.8 | Kd [10]: 8 nM | stoichiometry N [10]: 1.1

LPAFAGCL [XIP Y19A variant (ComS 17-24 with Y19A)]
Kd [10]: 52 nM | stoichiometry N [10]: 1.5

LPYAAGCL [XIP F20A variant (ComS 17-24 with F20A)]
Kd [10]: 2130 nM | stoichiometry N [10]: 1.2

LPYFAGCA [XIP L24A variant (ComS 17-24 with L24A)]
Kd [10]: 1550 nM | stoichiometry N [10]: 1.75

B1: PcomX ComR-box (20 bp) (dsDNA)
DNA 1: TAGTGACATATATGTCTCTA
DNA 2: TAGAGACATATATGTCACTA
binding result (ComR WT [11]): binds
